In patent US20220119825A1, “SCALABLE PEPTIDE-GPCR INT[…] SYSTEMS” (THE TRUSTEES OF COLUMBIA UNIVERSITY IN THE CITY OF NEW YORK, priority 2019, published 2022):

How the values were obtained:
Assay in all cases: cell-based or functional assay
[1] = target: T1, Nc.Ste2, Ste2-like mating GPCR of Neurospora crassa (Neurospora crassa)
T1 chain: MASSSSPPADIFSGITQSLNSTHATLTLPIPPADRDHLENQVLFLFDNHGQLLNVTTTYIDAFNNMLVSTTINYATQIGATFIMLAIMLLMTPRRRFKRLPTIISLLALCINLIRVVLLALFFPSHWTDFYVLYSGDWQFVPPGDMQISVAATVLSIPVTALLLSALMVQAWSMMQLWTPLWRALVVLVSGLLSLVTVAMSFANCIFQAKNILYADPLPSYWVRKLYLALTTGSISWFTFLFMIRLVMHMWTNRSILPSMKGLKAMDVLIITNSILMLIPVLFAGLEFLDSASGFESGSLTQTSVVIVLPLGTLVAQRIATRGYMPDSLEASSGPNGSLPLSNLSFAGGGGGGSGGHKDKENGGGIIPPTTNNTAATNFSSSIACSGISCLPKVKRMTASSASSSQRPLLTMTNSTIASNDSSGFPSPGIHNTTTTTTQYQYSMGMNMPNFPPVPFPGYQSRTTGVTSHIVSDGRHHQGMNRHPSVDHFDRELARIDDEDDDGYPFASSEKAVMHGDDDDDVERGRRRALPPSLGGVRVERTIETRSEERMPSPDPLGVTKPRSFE

[2] = target: T2, Sp.Ste2, Ste2-like mating GPCR of Schizosaccharomyces pombe (Schizosaccharomyces pombe, UniProt Q00619 1-348)
T2 sequence: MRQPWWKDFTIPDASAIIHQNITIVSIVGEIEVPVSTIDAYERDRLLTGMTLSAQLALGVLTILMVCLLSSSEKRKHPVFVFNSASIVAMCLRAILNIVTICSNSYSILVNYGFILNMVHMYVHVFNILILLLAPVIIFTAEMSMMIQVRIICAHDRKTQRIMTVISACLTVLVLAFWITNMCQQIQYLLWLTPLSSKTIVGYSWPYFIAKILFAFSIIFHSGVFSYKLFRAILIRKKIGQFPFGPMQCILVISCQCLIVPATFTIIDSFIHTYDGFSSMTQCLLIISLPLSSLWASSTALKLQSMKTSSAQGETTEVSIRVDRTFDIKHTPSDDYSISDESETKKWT

[3] = target: T3, Pd.Ste2, Ste2-like mating GPCR of Pseudogymnoascus destructans (Pseudogymnoascus destructans)
T3 chain: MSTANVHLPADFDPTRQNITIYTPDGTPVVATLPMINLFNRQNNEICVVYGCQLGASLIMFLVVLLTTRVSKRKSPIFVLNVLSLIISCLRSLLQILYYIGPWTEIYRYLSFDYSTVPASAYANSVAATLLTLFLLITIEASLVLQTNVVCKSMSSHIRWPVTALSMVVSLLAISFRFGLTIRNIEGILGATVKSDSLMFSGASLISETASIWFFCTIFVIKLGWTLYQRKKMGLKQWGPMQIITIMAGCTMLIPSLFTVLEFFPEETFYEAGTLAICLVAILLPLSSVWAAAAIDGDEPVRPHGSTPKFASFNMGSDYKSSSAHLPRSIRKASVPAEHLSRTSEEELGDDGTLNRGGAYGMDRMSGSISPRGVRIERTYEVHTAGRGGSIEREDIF

[4] = target: T4, Vp1.Ste2, Ste2-like mating GPCR of Vanderwaltozyma polyspora1 (Vanderwaltozyma polyspora)
T4 chain: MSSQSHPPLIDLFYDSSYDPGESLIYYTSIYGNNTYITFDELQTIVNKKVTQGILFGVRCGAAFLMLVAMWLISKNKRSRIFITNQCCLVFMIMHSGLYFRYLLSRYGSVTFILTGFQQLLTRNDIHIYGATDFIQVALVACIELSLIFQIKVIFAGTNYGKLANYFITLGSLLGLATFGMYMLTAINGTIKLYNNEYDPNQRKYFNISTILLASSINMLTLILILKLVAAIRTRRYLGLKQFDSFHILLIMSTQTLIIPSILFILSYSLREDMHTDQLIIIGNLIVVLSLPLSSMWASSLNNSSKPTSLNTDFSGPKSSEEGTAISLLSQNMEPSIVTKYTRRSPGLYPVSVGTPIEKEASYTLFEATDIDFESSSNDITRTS

[5] = target: T5, Ss.Ste2, Ste2-like mating GPCR of Scheffersomyces stipitis (Scheffersomyces stipitis)
T5 chain: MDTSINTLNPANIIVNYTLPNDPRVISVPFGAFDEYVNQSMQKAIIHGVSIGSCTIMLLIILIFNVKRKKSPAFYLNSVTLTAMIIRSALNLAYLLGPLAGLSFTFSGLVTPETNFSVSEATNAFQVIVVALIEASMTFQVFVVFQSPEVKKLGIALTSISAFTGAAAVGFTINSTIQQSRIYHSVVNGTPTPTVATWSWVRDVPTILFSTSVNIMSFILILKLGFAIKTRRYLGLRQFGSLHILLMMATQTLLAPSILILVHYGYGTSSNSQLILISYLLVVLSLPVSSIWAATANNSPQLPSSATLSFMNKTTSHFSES

[6] = target: T6, Sj.Ste2, Ste2-like mating GPCR of Schizosaccharomyces japonicus (Schizosaccharomyces japonicus)
T6 chain: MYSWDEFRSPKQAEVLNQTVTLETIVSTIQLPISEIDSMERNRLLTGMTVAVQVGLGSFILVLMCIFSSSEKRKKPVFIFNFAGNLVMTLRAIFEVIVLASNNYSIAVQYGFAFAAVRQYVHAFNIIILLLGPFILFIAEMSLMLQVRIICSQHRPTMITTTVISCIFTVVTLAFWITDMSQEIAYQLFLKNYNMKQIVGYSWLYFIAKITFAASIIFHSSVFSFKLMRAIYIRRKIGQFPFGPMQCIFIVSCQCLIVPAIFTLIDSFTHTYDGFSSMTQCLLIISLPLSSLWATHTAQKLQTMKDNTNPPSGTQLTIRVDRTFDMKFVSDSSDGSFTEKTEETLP

[7] = target: T7, Sca.Ste2, Ste2-like mating GPCR, code Sca (Saccharomyces castellii (Table 3 prints …))
T7 chain: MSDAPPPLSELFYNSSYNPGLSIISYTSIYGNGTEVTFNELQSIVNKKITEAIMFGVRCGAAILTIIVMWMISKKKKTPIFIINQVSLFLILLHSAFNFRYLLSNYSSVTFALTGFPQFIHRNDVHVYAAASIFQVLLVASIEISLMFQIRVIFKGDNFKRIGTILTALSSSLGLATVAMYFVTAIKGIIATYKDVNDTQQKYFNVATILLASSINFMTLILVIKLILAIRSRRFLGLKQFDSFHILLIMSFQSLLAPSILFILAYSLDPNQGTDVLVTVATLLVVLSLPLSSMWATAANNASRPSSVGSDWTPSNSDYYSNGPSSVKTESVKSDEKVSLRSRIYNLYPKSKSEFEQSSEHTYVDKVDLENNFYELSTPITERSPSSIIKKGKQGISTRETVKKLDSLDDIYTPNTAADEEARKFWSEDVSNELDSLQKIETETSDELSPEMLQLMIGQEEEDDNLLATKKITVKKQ

[8] = target: T8, So.Ste2, Ste2-like mating GPCR of Schizosaccharomyces octosporus (Schizosaccharomyces octosporus)
T8 chain: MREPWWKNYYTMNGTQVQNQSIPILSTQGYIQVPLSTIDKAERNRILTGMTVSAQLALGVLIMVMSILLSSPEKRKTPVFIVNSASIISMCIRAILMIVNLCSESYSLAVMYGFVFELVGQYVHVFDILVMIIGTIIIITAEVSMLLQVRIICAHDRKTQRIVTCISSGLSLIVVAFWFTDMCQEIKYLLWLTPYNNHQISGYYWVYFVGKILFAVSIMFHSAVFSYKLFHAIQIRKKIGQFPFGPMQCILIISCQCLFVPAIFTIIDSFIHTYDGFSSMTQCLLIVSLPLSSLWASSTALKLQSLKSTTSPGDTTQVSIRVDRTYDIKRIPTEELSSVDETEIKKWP

[9] = target: T9, Bm.Ste2, Ste2-like mating GPCR of Baudoinia compniacensis (Baudoinia compniacensis)
T9 chain: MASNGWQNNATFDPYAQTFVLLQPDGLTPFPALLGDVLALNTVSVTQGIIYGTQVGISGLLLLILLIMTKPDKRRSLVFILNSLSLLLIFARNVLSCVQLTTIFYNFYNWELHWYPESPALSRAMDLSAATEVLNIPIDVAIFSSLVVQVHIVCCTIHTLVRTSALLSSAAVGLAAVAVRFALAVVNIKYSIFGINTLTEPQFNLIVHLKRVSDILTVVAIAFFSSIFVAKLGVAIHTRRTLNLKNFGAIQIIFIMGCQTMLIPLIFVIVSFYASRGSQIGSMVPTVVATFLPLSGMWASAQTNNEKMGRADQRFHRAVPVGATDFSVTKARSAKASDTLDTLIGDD

[10] = target: T10, Pr.Ste2, Ste2-like mating GPCR of Penicillium chrysogenum (Penicillium chrysogenum)
T10 chain: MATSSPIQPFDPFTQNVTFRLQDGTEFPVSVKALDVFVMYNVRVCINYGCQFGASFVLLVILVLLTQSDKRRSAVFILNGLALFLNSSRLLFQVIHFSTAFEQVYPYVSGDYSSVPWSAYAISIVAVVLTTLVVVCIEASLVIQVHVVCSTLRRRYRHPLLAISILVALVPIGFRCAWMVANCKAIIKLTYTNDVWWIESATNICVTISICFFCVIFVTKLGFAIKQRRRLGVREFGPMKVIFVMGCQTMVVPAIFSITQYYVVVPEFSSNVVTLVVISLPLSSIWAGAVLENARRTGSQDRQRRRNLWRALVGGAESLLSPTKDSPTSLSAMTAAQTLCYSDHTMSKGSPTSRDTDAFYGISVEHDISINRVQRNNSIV

## QWCRIHGQSCW [Nc peptide ligand #1 QWCRIHGQSCW]
[1]
  Bttm (FUS1p-RFP reporter): 27.6 fluorescence/A600 (not printed)
  EC50 (FUS1p-RFP reporter): -6.3 log10 M (not printed)
  Fold Change (FUS1p-RFP reporter): 10.4 fold
  Span (FUS1p-RFP reporter): 259 fluorescence/A600 (not printed)
  Top (FUS1p-RFP reporter): 287 fluorescence/A600 (not printed)

## TYADFLRAYQSWNTFVNPDRPNL [Sp peptide ligand #1 TYADFLRAYQSWNTFVNPDRPNL]
[2]
  Bttm (FUS1p-RFP reporter): 29.6 fluorescence/A600 (not printed)
  EC50 (FUS1p-RFP reporter): -6.2 log10 M (not printed)
  Fold Change (FUS1p-RFP reporter): 7.6 fold
  Span (FUS1p-RFP reporter): 195 fluorescence/A600 (not printed)
  Top (FUS1p-RFP reporter): 224 fluorescence/A600 (not printed)

## FCWRPGQPCG [Pd peptide ligand #1 FCWRPGQPCG]
[3]
  Bttm (FUS1p-RFP reporter): 28.8 fluorescence/A600 (not printed)
  EC50 (FUS1p-RFP reporter): -7.7 log10 M (not printed)
  Fold Change (FUS1p-RFP reporter): 6.6 fold
  Span (FUS1p-RFP reporter): 161 fluorescence/A600 (not printed)
  Top (FUS1p-RFP reporter): 190 fluorescence/A600 (not printed)

## WHWLELDNGQPIY [Vp1 peptide ligand #1 WHWLELDNGQPIY]
[4]
  Bttm (FUS1p-RFP reporter): 28.8 fluorescence/A600 (not printed)
  EC50 (FUS1p-RFP reporter): -8.6 log10 M (not printed)
  Fold Change (FUS1p-RFP reporter): 8.4 fold
  Span (FUS1p-RFP reporter): 214 fluorescence/A600 (not printed)
  Top (FUS1p-RFP reporter): 243 fluorescence/A600 (not printed)

## WHWTSYGVFEPG [Ss peptide ligand #1 WHWTSYGVFEPG]
[5]
  Bttm (FUS1p-RFP reporter): 23 fluorescence/A600 (not printed)
  EC50 (FUS1p-RFP reporter): -7.9 log10 M (not printed)
  Fold Change (FUS1p-RFP reporter): 13.8 fold
  Span (FUS1p-RFP reporter): 295 fluorescence/A600 (not printed)
  Top (FUS1p-RFP reporter): 318 fluorescence/A600 (not printed)

## VSDRVKQMLSHWWNFRNPDTANL [Sj peptide ligand #1 VSDRVKQMLSHWWNFRNPDTANL]
[6]
  Bttm (FUS1p-RFP reporter): 21.2 fluorescence/A600 (not printed)
  EC50 (FUS1p-RFP reporter): -7.8 log10 M (not printed)
  Fold Change (FUS1p-RFP reporter): 14.7 fold
  Span (FUS1p-RFP reporter): 290 fluorescence/A600 (not printed)
  Top (FUS1p-RFP reporter): 311 fluorescence/A600 (not printed)

## NWHWLRLDPGQPLY [Sca peptide ligand #1 NWHWLRLDPGQPLY]
[7]
  Bttm (FUS1p-RFP reporter): 24.3 fluorescence/A600 (not printed)
  EC50 (FUS1p-RFP reporter): -8.1 log10 M (not printed)
  Fold Change (FUS1p-RFP reporter): 6.4 fold
  Span (FUS1p-RFP reporter): 131 fluorescence/A600 (not printed)
  Top (FUS1p-RFP reporter): 155 fluorescence/A600 (not printed)

## TYEDFLRVYKNWWSFQNPDRPDL [So peptide ligand #1 TYEDFLRVYKNWWSFQNPDRPDL]
[8]
  Bttm (FUS1p-RFP reporter): 23.7 fluorescence/A600 (not printed)
  EC50 (FUS1p-RFP reporter): -7.8 log10 M (not printed)
  Fold Change (FUS1p-RFP reporter): 11.1 fold
  Span (FUS1p-RFP reporter): 240 fluorescence/A600 (not printed)
  Top (FUS1p-RFP reporter): 263 fluorescence/A600 (not printed)

## GWIGRCGVPGSSC [Bm peptide ligand #1 GWIGRCGVPGSSC]
[9]
  Bttm (FUS1p-RFP reporter): 30.3 fluorescence/A600 (not printed)
  EC50 (FUS1p-RFP reporter): -6.7 log10 M (not printed)
  Fold Change (FUS1p-RFP reporter): 5.2 fold
  Span (FUS1p-RFP reporter): 128 fluorescence/A600 (not printed)
  Top (FUS1p-RFP reporter): 159 fluorescence/A600 (not printed)

## WCGHIGQGC [Pr peptide ligand #1 WCGHIGQGC]
[10]
  Bttm (FUS1p-RFP reporter): 27.9 fluorescence/A600 (not printed)
  EC50 (FUS1p-RFP reporter): -5.8 log10 M (not printed)
  Fold Change (FUS1p-RFP reporter): 7.4 fold
  Span (FUS1p-RFP reporter): 179 fluorescence/A600 (not printed)
  Top (FUS1p-RFP reporter): 207 fluorescence/A600 (not printed)
